Literature values, collected in US20120202218A1, “DETECTION METHOD AND DEVICE BASED ON NANOPARTICLE AGGREGATION” (MODPRO AB, priority 2008, published 2012).

What was measured:
[1] = neutral pH
Fab57P = conditions: binding to Fab57P, literature

H2N-NAADLEKAIEALEKHLEAKGPCDAAQLEKQLEQAFEAFERAG-COOH (H-NAADLEKAIEALEKHLEAKGPCDAAQLEKQLEQAFEAFERAG-OH) [JR2EC]
net charge [1]: −5

H-CRGTGSYNRSSFESSSGLV-NH2 [C-pTMVP]
Kd (Fab57P): ~1 nM
